Measurements from patent US20220267438A1 (Janssen / Centocor, published 2022).
Read-outs that look alike come from different tables or passages of the source.

Columns and labels:
[1] = target: T1, human BCMA (B cell maturation antigen, TNFRSF17) on cells (human, UniProt Q02223 1-184); test: cell binding, H929 and MM.1R cells
T1 construct: whole, on cells; Target on H929 or MM.1R GPRC5D knockout cells, K562 cells expressing human BCMA, HEK293 cells of the cell microarray, and BCMA-only lymphoma lines; also called CD269; surface BCMA
T1 sequence (looked up): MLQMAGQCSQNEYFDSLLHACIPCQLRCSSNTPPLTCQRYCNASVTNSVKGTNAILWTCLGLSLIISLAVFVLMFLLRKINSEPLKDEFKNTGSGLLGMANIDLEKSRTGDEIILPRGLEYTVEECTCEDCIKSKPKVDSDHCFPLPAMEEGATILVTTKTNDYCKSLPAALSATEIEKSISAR

[2] = target: T1, human BCMA (B cell maturation antigen, …); test: cell binding, H929 and MM.1R cells; remark: listed apart in the source
[3] = target: T2, BCMW37 (recombinant human BCMA antigen) (human, UniProt Q02223 1-54, limits assumed); test: SPR
T2 construct: also called BCMA BCMW37 chain; human BCMA (SPR antigen)
T2 sequence (looked up): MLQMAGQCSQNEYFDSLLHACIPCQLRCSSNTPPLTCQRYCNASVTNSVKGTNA

[4] = target: T2, BCMW37 (recombinant human BCMA antigen); test: SPR; antigen BCMW37; parental BCMA binder as scFv
[5] = target: T3, human CD3 (CD3ε of the TCR/CD3 complex) on primary human pan T cells (human, UniProt P07766 23-207); test: flow cytometry on T cells of donor D327645, with curve extrapolation
T3 construct: whole, on cells; On T cells CD3ε stands in the whole TCR/CD3 complex
T3 sequence (P07766 23-207, one chain of several): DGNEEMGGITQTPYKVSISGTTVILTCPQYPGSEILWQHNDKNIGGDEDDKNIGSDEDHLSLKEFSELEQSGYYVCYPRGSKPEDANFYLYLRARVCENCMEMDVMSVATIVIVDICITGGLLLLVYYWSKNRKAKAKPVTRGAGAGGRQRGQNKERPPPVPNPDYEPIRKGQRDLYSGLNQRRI
Method: (§1) Flow cytometry was used to evaluate the CD3 arm (i.e., CD3B376) binding of BGCB491 to CD3⁺ pan T cells from 7 different healthy human. Cell-based EC₅₀ for CD3B376 could not be determined due to lack of saturation kinetics at 1 hour (FIG. 26). Bioinformatic extrapolation was performed (FIG. 27) using the CD3B376×Null control antibody (i.e., GCDB381) molecule, which saturates within 2 μM top concentration dose-response to constrain the top of the non-linear regression curve to generate a full curve that enables estimation of ECₓ values (Table 21).

[6] = target: T3, human CD3 (CD3ε of the TCR/CD3 complex) …; test: flow cytometry on T cells of donor D203727, with curve extrapolation
Method: as §1

[7] = target: T4, cynomolgus monkey CD3 on peripheral blood mononuclear cells (cynomolgus monkey, UniProt Q95LI5 22-198); test: flow cytometry, cynomolgus monkey PBMCs
T4 construct: whole, on cells; also called cyno CD3
T4 sequence (Q95LI5 22-198): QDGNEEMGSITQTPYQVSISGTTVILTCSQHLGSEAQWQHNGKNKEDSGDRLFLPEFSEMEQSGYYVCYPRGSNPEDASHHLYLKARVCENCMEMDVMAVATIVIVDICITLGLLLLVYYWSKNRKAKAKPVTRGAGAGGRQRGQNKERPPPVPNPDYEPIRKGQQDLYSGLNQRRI
Method: The CD3-binding arm (i.e., CD3B376) binds to cynomolgus monkey CD3. Briefly, binding was measured by flow cytometry after incubating human and cynomolgus monkey peripheral blood mononuclear cells (PBMCs) with GCDB381 (i.e., CD3B376 Fab in bivalent IgG1-AAS antibody), CD3B891 (i.e., CD3B376×Null, IgG1-AAS bispecific antibody), or null control.

[8] = target: T3, human CD3 (CD3ε of the TCR/CD3 complex) …; test: flow cytometry on T cells of donor D316144, with curve extrapolation
Method: as §1

[9] = target: T5, human GPRC5D (G-protein coupled receptor family C group 5 member D) on cells (human, UniProt Q9NZD1 1-345); test: cell binding, H929 and MM.1R cells
T5 construct: Target on H929 or MM.1R BCMA knockout cells, K562 cells expressing human GPRC5D and HEK293 cells of the cell microarray
T5 sequence (Q9NZD1 whole entry): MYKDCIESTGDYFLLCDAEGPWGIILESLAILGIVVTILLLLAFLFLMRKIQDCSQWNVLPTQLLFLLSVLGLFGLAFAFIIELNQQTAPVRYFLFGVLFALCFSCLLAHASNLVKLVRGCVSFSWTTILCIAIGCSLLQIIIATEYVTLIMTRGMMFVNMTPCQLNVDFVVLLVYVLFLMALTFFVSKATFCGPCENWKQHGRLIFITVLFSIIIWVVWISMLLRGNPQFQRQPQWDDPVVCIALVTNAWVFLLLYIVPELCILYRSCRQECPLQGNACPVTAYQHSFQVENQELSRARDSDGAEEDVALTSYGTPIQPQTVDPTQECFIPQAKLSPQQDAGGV

[10] = target: T5, human GPRC5D (G-protein coupled …); test: cell binding, H929 and MM.1R cells; lower end of the range over H929 and MM.1R cells
[11] = target: T1, human BCMA (B cell maturation antigen, …); test: cell-based or functional assay
[12] = target: T5, human GPRC5D (G-protein coupled …); test: cell-based or functional assay

B1: BCMB519 (parental anti-BCMA binder, tested as scFv) (scFv, V domains shown)
VH: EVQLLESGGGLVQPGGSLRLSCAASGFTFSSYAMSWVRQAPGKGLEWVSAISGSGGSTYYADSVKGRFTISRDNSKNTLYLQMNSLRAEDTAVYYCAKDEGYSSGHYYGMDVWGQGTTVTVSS
VL: EIVLTQSPGTLSLSPGERATLSCRASQSISSSFLTWYQQKPGQAPRLLIYGASSRATGIPDRFSGGGSGTDFTLTISRLEPEDFAVYYCQHYGSSPMYTFGQGTKLEIK
notes: Tested 'as scFv'; also called BCMA lead
With B1 as the binder, how does the EC50 [1] read?
The EC50 was 2.3 to 3.2 nM.

What about the EC50 [2] of the same binder?
Its EC50 is 2.3 to 3.2 nM.

What about the Kd [3] of the same binder?
The Kd was 0.28 nM.

What about the Kd [4] of the same binder?
Its Kd is 0.28 nM.

B2: GCDB381 (CD3B376 Fab in bivalent IgG1-AAS antibody) (antibody, V domains shown)
VH: QVQLQQSGPRLVRPSQTLSLTCAISGDSVFNNNAAWSWIRQSPSRGLEWLGRTYYRSKWLYDYAVSVKSRITVNPDTSRNQFTLQLNSVTPEDTALYYCARGYSSSFDYWGQGTLVTVSS
VL: QSALTQPASVSGSPGQSITISCTGTSSNIGTYKFVSWYQQHPDKAPKVLLYEVSKRPSGVSSRFSGSKSGNTASLTISGLQAEDQADYHCVSYAGSGTLLFGGGTKLTVL
B2 was tested. Which “EC50 (read off the curve)” value [5] did it give?
Its value is ~70 nM.

And the “EC50 (read off the curve)” value [6]?
The value was ~80 nM.

Does B2 bind [7]?
Result: binds

And the “EC50 (read off the curve)” value [8]?
Its value is ~80 nM.

B3: GC5B680 (parental anti-GPRC5D binder, tested as Fab) (Fab, V domains shown)
VH: QVTLKESGPVLVKPTETLTLTCTVSGFSLTNIRMSVSWIRQPPGKALEWLAHIFSNDEKSYSTSLKSRLTISRDTSKSQVVLTLTNVDPVDTATYYCARMRLPYGMDVWGQGTTVTVSS
VL: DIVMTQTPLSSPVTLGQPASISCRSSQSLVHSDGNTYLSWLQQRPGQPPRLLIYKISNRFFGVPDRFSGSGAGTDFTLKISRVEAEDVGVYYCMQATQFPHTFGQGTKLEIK
notes: Tested 'as Fab'; also called GPRC5d lead
With B3 as the binder, how does the EC50 [9] read?
The EC50 was 6 to 24 nM.

And the EC50 [10]?
Its EC50 is 6 to 24 nM.

B4: Teclistamab (BCMA×CD3 bispecific antibody) (bispecific antibody)
chain 1: not shown
chain 2: SYVLTQPPSVSVAPGQTARITCGGNNIGSKSVHWYQQPPGQAPVVVVYDDSDRPSGIPERFSGSNSGNTATLTISRVEAGDEAVYYCQVWDSSSDHVVFGGGTKLTVLGQPKAAPSVTLFPPSSEELQANKATLVCLISDFYPGAVTVAWKGDSSPVKAGVETTTPSKQSNNKYAASSYLSLTPEQWKSHRSYSCQVTHEGSTVEKTVAPTECS
chain 3: EVQLVESGGGLVQPGGSLRLSCAASGFTFNTYAMNWVRQAPGKGLEWVARIRSKYNNYATYYAASVKGRFTISRDDSKNSLYLQMNSLKTEDTAVYYCARHGNFGNSYVSWFAYWGQGTLVTVSSASTKGPSVFPLAPCSRSTSESTAALGCLVKDYFPEPVTVSWNSGALTSGVHTFPAVLQSSGLYSLSSVVTVPSSSLGTKTYTCNVDHKPSNTKVDKRVESKYGPPCPPCPAPEAAGGPSVFLFPPKPKDTLMISRTPEVTCVVVDVSQEDPEVQFNWYVDGVEVHNAKTKPREEQFNSTYRVVSVLTVLHQDWLNGKEYKCKVSNKGLPSSIEKTISKAKGQPREPQVYTLPPSQEEMTKNQVSLTCLVKGFYPSDIAVEWESNGQPENNYKTTPPVLDSDGSFLLYSKLTVDKSRWQEGNVFSCSVMHEALHNHYTQKSLSLSLGK
chain 4: QTVVTQEPSLTVSPGGTVTLTCRSSTGAVTTSNYANWVQQKPGQAPRGLIGGTNKRAPGTPARFSGSLLGGKAALTLSGVQPEDEAEYYCALWYSNLWVFGGGTKLTVLGQPKAAPSVTLFPPSSEELQANKATLVCLISDFYPGAVTVAWKADSSPVKAGVETTTPSKQSNNKYAASSYLSLTPEQWKSHRSYSCQVTHEGSTVEKTVAPTECS
With B4 as the binder, how does the “CD3 T-cell activation EC50, H929-GPRC5D-KO” value [11] read?
Its value is 0.253 nM.

What about the “CD3 T-cell activation EC50, H929-WT” value [11] of the same binder?
The value was 0.334 nM.

And the “Cytotoxicity EC50, H929-GPRC5D-KO” value [11]?
The value was 0.198 nM.

And the “Cytotoxicity EC50, H929-WT” value [11]?
Its value is 0.275 nM.

B5: Talquetamab (GPRC5D×CD3 bispecific antibody) (bispecific antibody)
chain 1: not shown
chain 2: DIQMTQSPSSLSASVGDRVTITCKASQNVATHVGWYQQKPGKAPKRLIYSASYRYSGVPSRFSGSGSGTEFTLTISNLQPEDFATYYCQQYNRYPYTFGQGTKLEIKRTVAAPSVFIFPPSDEQLKSGTASVVCLLNNFYPREAKVQWKVDNALQSGNSQESVTEQDSKDSTYSLSSTLTLSKADYEKHKVYACEVTHQGLSSPVTKSFNRGEC
chain 3: EVQLVESGGGLVQPGGSLRLSCAASGFTFNTYAMNWVRQAPGKGLEWVARIRSKYNNYATYYAASVKGRFTISRDDSKNSLYLQMNSLKTEDTAVYYCARHGNFGNSYVSWFAYWGQGTLVTVSSASTKGPSVFPLAPCSRSTSESTAALGCLVKDYFPEPVTVSWNSGALTSGVHTFPAVLQSSGLYSLSSVVTVPSSSLGTKTYTCNVDHKPSNTKVDKRVESKYGPPCPPCPAPEAAGGPSVFLFPPKPKDTLMISRTPEVTCVVVDVSQEDPEVQFNWYVDGVEVHNAKTKPREEQFNSTYRVVSVLTVLHQDWLNGKEYKCKVSNKGLPSSIEKTISKAKGQPREPQVYTLPPSQEEMTKNQVSLTCLVKGFYPSDIAVEWESNGQPENNYKTTPPVLDSDGSFLLYSKLTVDKSRWQEGNVFSCSVMHEALHNHYTQKSLSLSLGK
chain 4: QTVVTQEPSLTVSPGGTVTLTCRSSTGAVTTSNYANWVQQKPGQAPRGLIGGTNKRAPGTPARFSGSLLGGKAALTLSGVQPEDEAEYYCALWYSNLWVFGGGTKLTVLGQPKAAPSVTLFPPSSEELQANKATLVCLISDFYPGAVTVAWKADSSPVKAGVETTTPSKQSNNKYAASSYLSLTPEQWKSHRSYSCQVTHEGSTVEKTVAPTECS
With B5 as the binder, how does the “CD3 T-cell activation EC50, H929-BCMA-KO” value [12] read?
Its value is 0.633 nM.

What about the “CD3 T-cell activation EC50, H929-WT” value [12] of the same binder?
The value was 0.233 nM.

What about the “Cytotoxicity EC50, H929-BCMA-KO” value [12] of the same binder?
Its value is 0.761 nM.

And the “Cytotoxicity EC50, H929-WT” value [12]?
Its value is 0.243 nM.
